These results are taken from patent publication US20040072293A1, “Novel physiologically active peptide and use thereof” (priority 2001, published 2004).

For one assay, the system named is ileum or distal colon. The note with it: cited from earlier work.
The test system of a further assay is proximal colon. As to conditions: cited from earlier work.
In assay [1] the target is T1, the protein of the invention (ZAQ) (Homo sapiens, UniProt Q8TCW9).
T1 construct: expressed in transfected cells
Put plainly: activation of the protein of the invention and intracellular Ca ion concentration in cells expressing it. It is filed as cell-based.

T1 sequence (Q8TCW9 whole entry): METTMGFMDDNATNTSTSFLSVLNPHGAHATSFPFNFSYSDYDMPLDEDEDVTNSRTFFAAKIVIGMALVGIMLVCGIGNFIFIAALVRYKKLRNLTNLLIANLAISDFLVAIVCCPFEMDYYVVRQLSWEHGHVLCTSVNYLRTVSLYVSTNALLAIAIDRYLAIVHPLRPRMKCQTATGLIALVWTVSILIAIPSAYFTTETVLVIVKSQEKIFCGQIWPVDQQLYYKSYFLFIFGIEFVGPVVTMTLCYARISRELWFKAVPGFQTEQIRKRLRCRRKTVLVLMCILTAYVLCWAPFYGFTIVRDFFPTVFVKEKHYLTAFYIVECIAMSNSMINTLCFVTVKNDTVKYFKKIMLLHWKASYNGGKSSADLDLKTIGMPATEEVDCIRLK

B1: MIT1 (protein, listed as Dendroaspip polylepis)
chain: AVITGACERDLQCGKGTCCAVSLWIKSVRVCTPVGTSGEDCHPASHKIPFSGQRMHHTCPCAPNLACVQTSPKKFKCLSK
On to B1, for which the “contraction in the ileum or distal colon” value with ileum or distal colon is “induced contraction in the ileum or distal colon”. In the assay on ileum or distal colon (ileum, distal colon (contraction) and proximal colon (relaxation), comparator 40 mM potassium chloride), the “degree of contraction/relaxation compared with potassium chloride” value was “as potent as comparable to 40 mM potassium chloride”. In addition, the “relaxation in the proximal colon” value with proximal colon is recorded as “relaxation in the proximal colon”. Also, the “activation of the protein of the invention” value in assay [1] was “activated the protein of the invention”. Also, in assay [1] (cells in which the protein of the invention was expressed), the “intracellular Ca ion concentration” value is “increased intracellular Ca ion concentration”.
